The text below walks through data of publication PMC5679017 (Journal of medicinal chemistry, 2016).

Square brackets hold non-standard residues; d marks the D form. Ends that are not written are not given here.

Assay in all cases: radioligand binding
Experiment [1] deals with mouse melanocortin-3 receptor, Flag-tagged (mouse, UniProt P33033 1-323).
Experiment [2] deals with mouse melanocortin-1 receptor (mouse, UniProt Q01727 1-315).
In experiment [3] the target is mouse melanocortin-4 receptor (mouse, UniProt P56450 1-332).
Sequence of mouse melanocortin-4 receptor (P56450 whole entry): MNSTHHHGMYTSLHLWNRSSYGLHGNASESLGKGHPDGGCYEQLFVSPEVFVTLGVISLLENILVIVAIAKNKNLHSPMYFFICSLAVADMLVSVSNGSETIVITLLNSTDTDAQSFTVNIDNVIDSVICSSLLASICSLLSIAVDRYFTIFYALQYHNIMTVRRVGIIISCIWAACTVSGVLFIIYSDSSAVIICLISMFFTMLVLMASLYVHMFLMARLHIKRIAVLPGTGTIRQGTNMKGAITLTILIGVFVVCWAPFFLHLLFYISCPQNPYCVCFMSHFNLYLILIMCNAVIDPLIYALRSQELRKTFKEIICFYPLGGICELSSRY

Sequence of mouse melanocortin-1 receptor (Q01727 whole entry): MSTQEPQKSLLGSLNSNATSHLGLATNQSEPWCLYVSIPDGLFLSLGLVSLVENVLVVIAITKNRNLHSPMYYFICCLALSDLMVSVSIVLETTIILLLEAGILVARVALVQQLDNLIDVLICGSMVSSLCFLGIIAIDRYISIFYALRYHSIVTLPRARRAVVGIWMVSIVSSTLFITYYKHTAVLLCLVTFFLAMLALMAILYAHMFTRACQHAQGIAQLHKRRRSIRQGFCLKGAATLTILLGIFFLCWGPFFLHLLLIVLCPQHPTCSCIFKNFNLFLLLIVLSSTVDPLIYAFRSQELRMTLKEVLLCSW
Sequence of mouse melanocortin-3 receptor, Flag-tagged (P33033 whole entry): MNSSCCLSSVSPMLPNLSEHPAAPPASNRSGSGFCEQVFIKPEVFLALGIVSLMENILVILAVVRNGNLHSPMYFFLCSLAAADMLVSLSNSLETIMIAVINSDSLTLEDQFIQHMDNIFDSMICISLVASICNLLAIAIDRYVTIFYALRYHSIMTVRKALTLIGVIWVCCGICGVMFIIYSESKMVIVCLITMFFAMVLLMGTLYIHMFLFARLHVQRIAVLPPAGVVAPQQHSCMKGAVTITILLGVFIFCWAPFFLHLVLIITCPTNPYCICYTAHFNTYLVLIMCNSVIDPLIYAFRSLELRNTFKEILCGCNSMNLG

B1: compound 6 (CJL-1-31): homobivalent ligand, two His-DPhe-Arg-Trp scaffolds joined by (Pro-Gly)6 (peptide)
peptide: H[dF]RWPGPGPGPGPGPGH[dF]RW-NH2
In general, IC50 refers to the concentration that gives 50% inhibition. Low values mean higher potency, high ones lower potency. With B1, the IC50 was determined as 3250 nM in experiment [1], 27.5 nM in experiment [2] and 33 nM in experiment [3].

B2: compound 5 (CJL-1-41): His-DPhe-Arg-Trp-NH2 scaffold with (Pro-Gly)6 added to the N-terminus (peptide)
peptide: PGPGPGPGPGPGH[dF]RW-NH2
modifications: N-terminus assumed
SMILES: N=C(N)NCCC[C@H](NC(=O)[C@@H](Cc1ccccc1)NC(=O)[C@H](Cc1c[nH]cn1)NC(=O)CNC(=O)[C@@H]1CCCN1C(=O)CNC(=O)[C@@H]1CCCN1C(=O)CNC(=O)[C@@H]1CCCN1C(=O)CNC(=O)[C@@H]1CCCN1C(=O)CNC(=O)[C@@H]1CCCN1C(=O)CNC(=O)[C@@H]1CCCN1)C(=O)N[C@@H](Cc1c[nH]c2ccccc12)C(N)=O
B2: the IC50 in experiment [1] came to 8430 nM; in experiment [3] it was 258 nM.

B3: compound 4 (CJL-5-35-1): Ac-His-DPhe-Arg-Trp-NH2 scaffold with (Pro-Gly)6 added to the C-terminus (peptide)
peptide: Ac-H[dF]RWPGPGPGPGPGPG-NH2
SMILES: CC(=O)N[C@@H](Cc1c[nH]cn1)C(=O)N[C@H](Cc1ccccc1)C(=O)N[C@@H](CCCNC(=N)N)C(=O)N[C@@H](Cc1c[nH]c2ccccc12)C(=O)N1CCC[C@H]1C(=O)NCC(=O)N1CCC[C@H]1C(=O)NCC(=O)N1CCC[C@H]1C(=O)NCC(=O)N1CCC[C@H]1C(=O)NCC(=O)N1CCC[C@H]1C(=O)NCC(=O)N1CCC[C@H]1C(=O)NCC(N)=O
As for B3, the IC50 in experiment [2] stood at 225 nM; in experiment [3], 841 nM.
